The record followed here is the domain aggregation screens of Martell et al. (2025).

A short description of this series: soluble fraction after stress (log2 fold change); higher = more stays soluble; pooled small domains, quantitative proteomics. The note with it: stress: pH 4. An outline of the steps: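 Pooled custom libraries of small protein domains were subjected to pH 4 and measured by high-throughput quantitative proteomics. The log2 fold change in soluble amount per domain is reported, higher values meaning more remained soluble. This is used as a measure of aggregation propensity.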
With “HMEASVNAPMPGKIVSVSVSEGQQVNAGDVLLILEAMKMQNEITADAAGTVKAINVNAGQSVKNGDSLVIL”, the “soluble fraction (log2)” value was -0.586.

As for “HMEAVGLTPRQGDVLALLLQGKPNKLIARDLNLSVETVKDHVAAVLRALGVSTRTQAVLAVSQMQQQAAQ”, the “soluble fraction (log2)” value is -0.221.

Regarding “HMEAVLTISPGMYSESVSAELVRLGIITNQKEFNSYLVNNGYAERIQTGDFKIKADMSYDEIARIITK”, the “soluble fraction (log2)” value was -0.489.

As for “HMEAYDTMEDRTTLAPGFAKLDKRERYILHLRFFEGLTQSQIAERVGISQMHVSRLIRRSLEKLREEIGD”, the “soluble fraction (log2)” value is -0.4.

Consider “HMEAYSAEAVRFRIKAMIESETVDDVMSDDKIVERLLADGVDIARRTVAKYREAMNIPSSVKRRRKLKGM”, for which the “soluble fraction (log2)” value was -0.962.

As to “HMEDDRMLVWFFRKSIQNGAQSEAEGRPIFEGKDYVHIQQPGERDYIEREAHQGDIGRWPRHWQAYQEGR”, the “soluble fraction (log2)” value is -0.359.

“HMEDEAVMQLPLSELKGLSPELLAILNGAGYEKLKDVLDLEREDIERIPGMTPERNEQLVAFLAELTE”: the “soluble fraction (log2)” value is -1.98.

Consider “HMEDELFSVARAAFPEYASKIHMNYGSTVQSIARQSGVLTVSETKQLNENQQISYLEYSNGAVVLALA”, for which the “soluble fraction (log2)” value was -0.306.

Turning to “HMEDELVMERFDINELVKSVVNANELRATQKNLSITYDILDTPLYVWADEYKVEEVVTNYLS”, the “soluble fraction (log2)” value was -1.06.

As to “HMEDIASESVKRVIRKIIDDEDKKSPLSDQAIVEILAKGEGIVIARRTVAKYREMMGILPSSKRKKH”, the “soluble fraction (log2)” value was found to be 0.0959.

On to “HMEDKIEESLEDNISELFAKTKDKYTLINDLYSKGYTVEELSRFSGLPSGEVRLVISLNSKN”, for which the “soluble fraction (log2)” value is -0.183.

Take “HMEDKPITKEQKQAMFALLREHFSGDEGNAVYTAVLEREGLAPGDKIMSSVYDRLIDGINEAIRQKLEAGA”: the “soluble fraction (log2)” value is -0.133.

Consider “HMEDNLMIVVQVNGKKRSEIKVSIDASEDQIKQTALAEPNVQKFVEGHTIRKMILVPSKLLNIVV”, for which the “soluble fraction (log2)” value was no less than 0.43.

Take “HMEDPKLAQLTEQERKILDLIADGLTNRQIAEKMFLAEKTVKNYVSTILAKMGMSNRSEAAAYVARLEAG”: the “soluble fraction (log2)” value was -0.292.

“HMEDPPISQEQRQALFKMAHDHLGKDEGNKAILTLIQSHGLNSTTGMKVSTYNTIMEELVSTIQSLAA”: the “soluble fraction (log2)” value was determined as 0.0682.

Turning to “HMEDPVAQEARAAFEVGRLLAAATGPVTLAAIRRAIDLPEERLEEILRRLEESGAVRRARDGWLPG”, the “soluble fraction (log2)” value is -0.269.

On to “HMEDVDLFTKAMAALPNRYRDILLLRYSHGYTVEEISDILSMKPENVKKTIQRARKKLGEILEAEG”, for which the “soluble fraction (log2)” value is -0.202.

Turning to “HMEEDPVIAAQRFLNIFRQLHIFTAAKRKEFDELLLKQPASVKGMFASLPGGSVLQEYVNNLEQNAG”, the “soluble fraction (log2)” value was -0.0952.

With “HMEEFIEHTVEKGEFLSAIIVAYNQHLKSKGFKSITTRDILNANPKLKPELIQVGQKIKIPRRKK”, the “soluble fraction (log2)” value was -0.0958.

In the case of “HMEEFLSFIADILEVDKNTLTLETSQDDVETWDSLMQLRLLGEIEAKYGVMIPMERISTIKKLNDFYQYIK”, the “soluble fraction (log2)” value is -1.76.

“HMEEIIPIRFLRHRVKRRETIFGLTQKYNITEDQLKRYNTRLYSEALERKMVLQIPVFPEVDED”: the “soluble fraction (log2)” value was -0.667.

Turning to “HMEEITLQEQINFIKDMLLNKEKFHLTDVITKKSKIYVVSLFLALLELIRLEEINFRQTQNFSDIIISRI”, the “soluble fraction (log2)” value was -0.381.

As for “HMEELGKVRPELDGNEIAKVLGITPGPVLGRAYTYLLSVRLDEGPIGPDVARERLLAWWAEQPES”, the “soluble fraction (log2)” value was -2.01.

Consider “HMEELIEMNGVVMEILPDSRYRVTLDNGHKLIAYTGGKMKKNHIRILAGDKVTLELSPYDINNGRITFRHI”, for which the “soluble fraction (log2)” value is -0.146.

Consider “HMEELTDSELNNLYRELFIARSNASDGVGIIEQKTIKGITYRLSNDNNYLIKELGNKEYIYKNGVWEEYT”, for which the “soluble fraction (log2)” value was 0.0623.

With “HMEENNIVIYITGAVKKEGIYEIKENSRISDAIEAAGGLLENANIKDINLAYIIEDGVKIYIPTNEEVNK”, the “soluble fraction (log2)” value was -1.35.

Take “HMEEPFRIEKKGDIYYISGKTVERLVAMTDLDNDSAVKRLQRTLKRMGVEDALREHGINPGDTVVIGNYEF”: the “soluble fraction (log2)” value was determined as 0.04.
